The values that follow come from US20020107196A1.

The target of this experiment is human CXCR4 receptor (human). The experiment is described as follows: cell-based or functional assay.

stromal cell derived factor-1α (SDF-1α) (ligand), sequence (chain): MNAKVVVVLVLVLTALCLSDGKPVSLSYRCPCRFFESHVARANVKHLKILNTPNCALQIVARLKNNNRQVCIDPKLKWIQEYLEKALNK

Consider “stromal cell derived factor-1α (SDF-1α) (ligand)”, for which the EC50 of HUVEC migration (Transwell chemotaxis) was in the range of 10 to 20 nM, the elevation of [Ca+2]i in HUVEC (fura-2 fluorescence); concentration of maximal response was found to be 100 nM and the percent migration of input EC (Transwell chemotaxis) was determined as 40%.
